Experimental data from patent US20200079833A1 (AstraZeneca / MedImmune, published 2020).
Starred links: 1 amine or outer side, 2 acyl side, 3 side chain; linkers in the order of their positions; H or OH if unused. Non-standard residues stand in square brackets, D forms with d. Groups on a side chain read outwards from the residue. Primed or numbered codes have the meaning given here. No end group written: not given here. *: point of attachment. γGlu = O=C(O)[C@H](CCC(=O)[*:2])N[*:1]; Stearoyl = CCCCCCCCCCCCCCCCCC(=O)*; αMeF = C[C@](N)(Cc1ccccc1)C(=O)O; αMeK = C[C@](N)(CCCCN)C(=O)O; αMeS = C[C@](N)(CO)C(=O)O; PEG2′ = not defined here; Aib = CC(C)(N)C(=O)O; Ahx = NCCCCCC(=O)O

T1: glucose-dependent insulinotropic peptide (gastric inhibitory polypeptide) receptor (GIPR) (human, UniProt P48546 22-466)
T1 sequence (looked up): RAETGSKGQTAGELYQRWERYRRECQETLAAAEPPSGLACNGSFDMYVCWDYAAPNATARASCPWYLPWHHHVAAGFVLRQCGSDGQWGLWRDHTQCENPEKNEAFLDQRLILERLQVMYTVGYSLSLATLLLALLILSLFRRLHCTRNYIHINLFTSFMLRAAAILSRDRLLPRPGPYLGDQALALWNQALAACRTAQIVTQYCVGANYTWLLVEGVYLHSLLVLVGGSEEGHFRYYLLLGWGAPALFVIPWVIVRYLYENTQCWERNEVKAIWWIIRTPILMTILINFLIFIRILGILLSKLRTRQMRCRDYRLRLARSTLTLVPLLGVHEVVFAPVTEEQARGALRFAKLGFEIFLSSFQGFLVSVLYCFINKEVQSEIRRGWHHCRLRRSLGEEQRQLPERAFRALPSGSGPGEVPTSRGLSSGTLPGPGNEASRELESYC

T2: GLP-1R (INS1e assay) (UniProt P32301 22-463, limits assumed)
T2 sequence (looked up): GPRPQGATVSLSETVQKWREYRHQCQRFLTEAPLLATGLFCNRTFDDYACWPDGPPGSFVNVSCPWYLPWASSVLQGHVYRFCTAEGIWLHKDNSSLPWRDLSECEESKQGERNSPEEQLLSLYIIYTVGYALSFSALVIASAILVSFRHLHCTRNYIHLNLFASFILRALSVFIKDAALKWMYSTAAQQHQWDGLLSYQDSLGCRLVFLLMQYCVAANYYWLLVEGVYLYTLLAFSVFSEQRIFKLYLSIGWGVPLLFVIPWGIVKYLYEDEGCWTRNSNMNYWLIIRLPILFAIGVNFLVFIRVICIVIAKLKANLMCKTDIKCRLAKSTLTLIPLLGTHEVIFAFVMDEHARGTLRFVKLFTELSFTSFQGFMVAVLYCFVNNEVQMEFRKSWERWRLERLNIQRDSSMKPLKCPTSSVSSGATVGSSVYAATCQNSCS

B1: SEQ ID NO 149 (peptide)
peptide: H[Aib]EGS[αMeF]TSDV[αMeS]S[αMeF]LEGEAAK([Ahx-Stearoyl])E[αMeF]IA[αMeF]VV[αMeK]GG-NH2
modifications: N-terminus assumed
SMILES: CCCCCCCCCCCCCCCCCC(=O)NCCCCCC(=O)NCCCC[C@H](NC(=O)[C@H](C)NC(=O)[C@H](C)NC(=O)[C@H](CCC(=O)O)NC(=O)CNC(=O)[C@H](CCC(=O)O)NC(=O)[C@H](CC(C)C)NC(=O)[C@](C)(Cc1ccccc1)NC(=O)[C@H](CO)NC(=O)[C@](C)(CO)NC(=O)[C@@H](NC(=O)[C@H](CC(=O)O)NC(=O)[C@H](CO)NC(=O)[C@@H](NC(=O)[C@](C)(Cc1ccccc1)NC(=O)[C@H](CO)NC(=O)CNC(=O)[C@H](CCC(=O)O)NC(=O)C(C)(C)NC(=O)[C@@H](N)Cc1c[nH]cn1)[C@@H](C)O)C(C)C)C(=O)N[C@@H](CCC(=O)O)C(=O)N[C@@](C)(Cc1ccccc1)C(=O)N[C@H](C(=O)N[C@@H](C)C(=O)N[C@@](C)(Cc1ccccc1)C(=O)N[C@H](C(=O)N[C@H](C(=O)N[C@@](C)(CCCCN)C(=O)NCC(=O)NCC(N)=O)C(C)C)C(C)C)[C@@H](C)CC
B2: SEQ ID NO 148 (peptide)
peptide: H[Aib]EGS[αMeF]TSDV[αMeS]S[αMeF]LEGEAAK([γGlu-γGlu-γGlu-Stearoyl])E[αMeF]IA[αMeF]VV[αMeK]GG-NH2
modifications: N-terminus assumed
SMILES: CCCCCCCCCCCCCCCCCC(=O)N[C@@H](CCC(=O)N[C@@H](CCC(=O)N[C@@H](CCC(=O)NCCCC[C@H](NC(=O)[C@H](C)NC(=O)[C@H](C)NC(=O)[C@H](CCC(=O)O)NC(=O)CNC(=O)[C@H](CCC(=O)O)NC(=O)[C@H](CC(C)C)NC(=O)[C@](C)(Cc1ccccc1)NC(=O)[C@H](CO)NC(=O)[C@](C)(CO)NC(=O)[C@@H](NC(=O)[C@H](CC(=O)O)NC(=O)[C@H](CO)NC(=O)[C@@H](NC(=O)[C@](C)(Cc1ccccc1)NC(=O)[C@H](CO)NC(=O)CNC(=O)[C@H](CCC(=O)O)NC(=O)C(C)(C)NC(=O)[C@@H](N)Cc1c[nH]cn1)[C@@H](C)O)C(C)C)C(=O)N[C@@H](CCC(=O)O)C(=O)N[C@@](C)(Cc1ccccc1)C(=O)N[C@H](C(=O)N[C@@H](C)C(=O)N[C@@](C)(Cc1ccccc1)C(=O)N[C@H](C(=O)N[C@H](C(=O)N[C@@](C)(CCCCN)C(=O)NCC(=O)NCC(N)=O)C(C)C)C(C)C)[C@@H](C)CC)C(=O)O)C(=O)O)C(=O)O
B3: SEQ ID NO 150 (peptide)
peptide: H[Aib]EGS[αMeF]TSDV[αMeS]S[αMeF]LEGEAAK([Ahx-Ahx-Stearoyl])E[αMeF]IA[αMeF]VV[αMeK]GG-NH2
modifications: N-terminus assumed
SMILES: CCCCCCCCCCCCCCCCCC(=O)NCCCCCC(=O)NCCCCCC(=O)NCCCC[C@H](NC(=O)[C@H](C)NC(=O)[C@H](C)NC(=O)[C@H](CCC(=O)O)NC(=O)CNC(=O)[C@H](CCC(=O)O)NC(=O)[C@H](CC(C)C)NC(=O)[C@](C)(Cc1ccccc1)NC(=O)[C@H](CO)NC(=O)[C@](C)(CO)NC(=O)[C@@H](NC(=O)[C@H](CC(=O)O)NC(=O)[C@H](CO)NC(=O)[C@@H](NC(=O)[C@](C)(Cc1ccccc1)NC(=O)[C@H](CO)NC(=O)CNC(=O)[C@H](CCC(=O)O)NC(=O)C(C)(C)NC(=O)[C@@H](N)Cc1c[nH]cn1)[C@@H](C)O)C(C)C)C(=O)N[C@@H](CCC(=O)O)C(=O)N[C@@](C)(Cc1ccccc1)C(=O)N[C@H](C(=O)N[C@@H](C)C(=O)N[C@@](C)(Cc1ccccc1)C(=O)N[C@H](C(=O)N[C@H](C(=O)N[C@@](C)(CCCCN)C(=O)NCC(=O)NCC(N)=O)C(C)C)C(C)C)[C@@H](C)CC
B4: SEQ ID NO 147 (peptide)
peptide: H[Aib]EGS[αMeF]TSDV[αMeS]S[αMeF]LEGEAAK([γGlu-γGlu-Stearoyl])E[αMeF]IA[αMeF]VV[αMeK]GG-NH2
modifications: N-terminus assumed
SMILES: CCCCCCCCCCCCCCCCCC(=O)N[C@@H](CCC(=O)N[C@@H](CCC(=O)NCCCC[C@H](NC(=O)[C@H](C)NC(=O)[C@H](C)NC(=O)[C@H](CCC(=O)O)NC(=O)CNC(=O)[C@H](CCC(=O)O)NC(=O)[C@H](CC(C)C)NC(=O)[C@](C)(Cc1ccccc1)NC(=O)[C@H](CO)NC(=O)[C@](C)(CO)NC(=O)[C@@H](NC(=O)[C@H](CC(=O)O)NC(=O)[C@H](CO)NC(=O)[C@@H](NC(=O)[C@](C)(Cc1ccccc1)NC(=O)[C@H](CO)NC(=O)CNC(=O)[C@H](CCC(=O)O)NC(=O)C(C)(C)NC(=O)[C@@H](N)Cc1c[nH]cn1)[C@@H](C)O)C(C)C)C(=O)N[C@@H](CCC(=O)O)C(=O)N[C@@](C)(Cc1ccccc1)C(=O)N[C@H](C(=O)N[C@@H](C)C(=O)N[C@@](C)(Cc1ccccc1)C(=O)N[C@H](C(=O)N[C@H](C(=O)N[C@@](C)(CCCCN)C(=O)NCC(=O)NCC(N)=O)C(C)C)C(C)C)[C@@H](C)CC)C(=O)O)C(=O)O
B5: SEQ ID NO 146 (peptide)
peptide: H[Aib]EGS[αMeF]TSDV[αMeS]S[αMeF]LEGEAAK([γGlu-Stearoyl])E[αMeF]IA[αMeF]VV[αMeK]GG-NH2
modifications: N-terminus assumed
SMILES: CCCCCCCCCCCCCCCCCC(=O)N[C@@H](CCC(=O)NCCCC[C@H](NC(=O)[C@H](C)NC(=O)[C@H](C)NC(=O)[C@H](CCC(=O)O)NC(=O)CNC(=O)[C@H](CCC(=O)O)NC(=O)[C@H](CC(C)C)NC(=O)[C@](C)(Cc1ccccc1)NC(=O)[C@H](CO)NC(=O)[C@](C)(CO)NC(=O)[C@@H](NC(=O)[C@H](CC(=O)O)NC(=O)[C@H](CO)NC(=O)[C@@H](NC(=O)[C@](C)(Cc1ccccc1)NC(=O)[C@H](CO)NC(=O)CNC(=O)[C@H](CCC(=O)O)NC(=O)C(C)(C)NC(=O)[C@@H](N)Cc1c[nH]cn1)[C@@H](C)O)C(C)C)C(=O)N[C@@H](CCC(=O)O)C(=O)N[C@@](C)(Cc1ccccc1)C(=O)N[C@H](C(=O)N[C@@H](C)C(=O)N[C@@](C)(Cc1ccccc1)C(=O)N[C@H](C(=O)N[C@H](C(=O)N[C@@](C)(CCCCN)C(=O)NCC(=O)NCC(N)=O)C(C)C)C(C)C)[C@@H](C)CC)C(=O)O
B6: SEQ ID NO 198 (peptide)
peptide: H[Aib]EGS[αMeF]TSDV[αMeS]S[αMeF]LEGEAA[αMeK]E[αMeF]IA[αMeF]VVK([PEG2′-PEG2′-Stearoyl])GG-NH2
B7: SEQ ID NO 199 (peptide)
peptide: H[Aib]EGS[αMeF]TSDV[αMeS]S[αMeF]LEGEAA[αMeK]E[αMeF]IA[αMeF]VVK([PEG2′-PEG2′-PEG2′-Stearoyl])GG-NH2

biological target: GLP-1 receptor (GLP-1R) (human, UniProt P43220 24-463); assay: cell-based or functional assay

| cAMP Mean pM GLP-1R [pM] | cAMP Primary assay EC50 GLP-1R n1 [nM] | cAMP Primary assay EC50 GLP-1R n2 [nM] | Binder |
| --- | --- | --- | --- |
| 66.2 | 0.081 | 0.051 | B1 |
| 12.1 | 0.016 | 0.0087 | B2 |
| 25.4 | 0.028 | 0.022 | B3 |
| 23.2 | 0.032 | 0.014 | B4 |
| 69 | 0.096 | 0.042 | B5 |

biological target: T1, glucose-dependent insulinotropic …; assay: cell-based or functional assay

| cAMP Primary assay EC50 GIP-R [nM] | cAMP Primary assay EC50 GIP-R (2nd) [nM] | Binder |
| --- | --- | --- |
| 28 | 28 | B1 |
| 26 | 26 | B2 |
| 27 | 27 | B3 |
| 27 | 27 | B4 |
| 28 | 28 | B5 |

biological target: glucagon receptor (GCGR) (human, UniProt P47871 26-477); assay: cell-based or functional assay
Sequence (P47871 26-477): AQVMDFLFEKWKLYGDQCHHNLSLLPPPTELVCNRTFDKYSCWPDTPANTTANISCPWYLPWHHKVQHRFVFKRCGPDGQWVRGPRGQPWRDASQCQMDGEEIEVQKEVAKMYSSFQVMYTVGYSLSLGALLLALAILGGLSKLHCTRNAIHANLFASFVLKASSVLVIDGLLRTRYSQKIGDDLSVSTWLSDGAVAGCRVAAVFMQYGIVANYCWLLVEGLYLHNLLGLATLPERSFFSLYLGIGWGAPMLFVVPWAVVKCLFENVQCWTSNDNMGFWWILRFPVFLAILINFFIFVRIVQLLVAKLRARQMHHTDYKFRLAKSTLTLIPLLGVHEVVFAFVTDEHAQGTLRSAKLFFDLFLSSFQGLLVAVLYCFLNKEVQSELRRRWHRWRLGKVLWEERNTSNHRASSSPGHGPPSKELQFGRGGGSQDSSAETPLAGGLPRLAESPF

| cAMP Primary assay EC50 Gluc-R [nM] | cAMP Primary assay EC50 Gluc-R (2nd) [nM] | Binder |
| --- | --- | --- |
| 28 | 28 | B1 |
| 26 | 26 | B2 |
| 27 | 27 | B3 |
| 27 | 27 | B4 |
| 28 | 28 | B5 |

biological target: T2, GLP-1R (INS1e assay); assay: cell-based or functional assay

| INS1e assay EC50 GLP-1 R n1 [nM] | INS1e assay EC50 GLP-1 R n2 [nM] | INS1e assay EC50 Mean pM GLP-1R [pM] | Binder |
| --- | --- | --- | --- |
| 1.38 | 0.89 | 1140 | B6 |
| 0.787 | 2.13 | 1460 | B7 |
